Assay [1] concerns the target human PD1 (amino acids M1-L288 of NP_005009.2 with a 2Q=>E mutation) stably expressed on engineered reporter … (human, UniProt Q15116 25-288). Put plainly: cell-based or functional assay.
The target of assay [2] is T1, human PD-1 expressed with a C-terminal myc-myc-hexahistidine tag (human).
T1 construct: also called hPD-1.mmH; hPD-1.mmh
Put plainly: SPR (Biacore), antibody captured via anti-human Fc, hPD-1.mmH in solution, 25 C. How it is done:
The CM5 Biacore sensor surface was derivatized by amine coupling with a monoclonal mouse anti-human Fc antibody (GE, #BR-1008-39). All Biacore binding studies were performed in a buffer composed of 0.01M HEPES pH 7.4, 0.15M NaCl, 3 mM EDTA, 0.05% v/v Surfactant P20 (HBS-EP running buffer). […] Antibody-reagent association was monitored for 4 or 5 minutes, while dissociation in HBS-EP running buffer was monitored for 10 minutes. […] All binding kinetics experiments were performed at 25° C.
Kinetic association (kₐ) and dissociation (kd) rate constants were determined by fitting the real-time sensorgrams to a 1:1 binding model using Scrubber 2.0c curve fitting software. Binding dissociation equilibrium constants (KD) and dissociative half-lives (t½) were calculated from the kinetic rate constants as: […]
Background: In SPR one partner is held on a chip, and binding of the other changes the refractive index at the surface.

Assay [3] addresses T2, human PD1 expressed endogenously on YT/STAT5 luc/Cl4 cells (human, UniProt Q15116 25-288).
T2 construct: whole, on cells; also called hPD1; PD1+ cells
Kind of assay: flow cytometry (FACS) titration on YT/STAT5 luc/CL4 cells with endogenous hPD1, APC anti-human Fc-gamma secondary, MFI_APC. The protocol: To compare hPD1 binding of αhPD1-IL2Rα-IL2 proteins to their respective parental anti-hPD1 antibodies, YT/STAT5 luc/Cl4 cells expressing endogenous levels of hPD1 were washed twice with FACS wash (PBS+2% FBS) and resuspended at 1×10\hat{ }6 cells/ml in FACS wash. Cells (100 μl/well) were then plated in 96 well U bottom plates. Cells were spun down (1200 RPM, 5 minutes) and resuspended in 100 μl/well of the various antibody dilutions listed in mAb clone IDs. The antibody titrations were prepared starting at 20 μg/ml with a 6-fold dilution using FACS wash. Cells were incubated with the antibodies for 30 minutes at 4° C. The unbound antibodies were then removed by washing the cells twice using FACS wash. The cells were then resuspended in 100 μl/well of 1:200 dilution of APC-anti-human Fcγ secondary antibody. The cells were incubated for 30 minutes at 4° C. The unbound antibodies were then removed by washing the cells twice using FACS wash. The cells were then resuspended in 160 μl/well of FACS wash and run to test binding using BD FACSCanto™ Flow Cytometer.

T1 sequence (chain, as listed by the source limits assumed): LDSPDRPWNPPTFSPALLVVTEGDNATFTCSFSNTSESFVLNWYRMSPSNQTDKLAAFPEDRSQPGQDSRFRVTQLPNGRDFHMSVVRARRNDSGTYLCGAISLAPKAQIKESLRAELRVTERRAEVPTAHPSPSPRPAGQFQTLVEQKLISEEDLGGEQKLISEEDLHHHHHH
T2 sequence (Q15116 25-288): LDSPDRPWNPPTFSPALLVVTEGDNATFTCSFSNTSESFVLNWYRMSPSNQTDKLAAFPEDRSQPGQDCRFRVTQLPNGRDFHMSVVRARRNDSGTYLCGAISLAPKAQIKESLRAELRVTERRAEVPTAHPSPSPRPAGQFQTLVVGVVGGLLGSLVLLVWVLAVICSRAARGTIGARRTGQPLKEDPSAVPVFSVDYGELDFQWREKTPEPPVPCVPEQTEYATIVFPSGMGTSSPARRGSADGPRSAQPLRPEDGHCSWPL
human PD1 (amino acids M1-L288 of NP_005009.2 with a 2Q=>E mutation) stably expressed on engineered reporter …, sequence (Q15116 25-288, change not shown): as the sequence (Q15116 25-288) above

B1: REGN2810 (antibody, human IgG4 S228P, kappa, V domains shown)
VH: EVQLLESGGVLVQPGGSLRLSCAASGFTFSNFGMTWVRQAPGKGLEWVSGISGGGRDTYFADSVKGRFTISRDNSKNTLYLQMNSLKGEDTAVYYCVKWGNIYFDYWGQGTLVTVSS
VL: DIQMTQSPSSLSASVGDSITITCRASLSINTFLNWYQQKPGKAPNLLIYAASSLHGGVPSRFSGSGSGTDFTLTIRTLQPEDFATYYCQQSSNTPFTFGPGTVVDFRR
notes: Human IgG4 Fc with the S108P hinge mutation; also called mAb7798; cemiplimab
The Kd is the constant that tells how readily two partners part at equilibrium. The koff is the first-order rate constant of dissociation. Read a low koff as slow dissociation. By kon is commonly meant a measure of how fast the partners come together. A higher kon goes with faster complex formation. The EC50 is the midpoint of the concentration-response curve. Read a high EC50 as a need for much substance. Take B1: in assay [1], the “EC50 (M), AP1-Luc PD1 antagonistic assay” value was determined as 3.67e-09 M and the “Fold induction, AP1-Luc PD1 antagonistic assay” value (from here on “Fold induction”) was 19.2 fold. In assay [2], the “90 nM or 100 nM hPD-1.mmH Bind (RU)” value was 88.7 RU, the Kd came out at 2.56 nM, the off-rate constant (koff) was determined as 0.000253 s⁻¹ and the kon was found to be 98800 M⁻¹ s⁻¹. In assay [2], the t1/2 was found to be 45.7 min. In assay [3], it took 0.774 nM to reach a half-maximal effect (EC50).

B2: mAb29512 (antibody, V domains shown)
VH: QVQLVQSGTEVRKPGSSVKVSCKTSGVTFNNYAITWVRQAPGQGLEWMGGIIPVFSPPNYAQKFQGRVTITADESTNTAYMELNSLRSDDTAIYFCAREGERGYTYGYDYWGQGTLVTVSS
VL: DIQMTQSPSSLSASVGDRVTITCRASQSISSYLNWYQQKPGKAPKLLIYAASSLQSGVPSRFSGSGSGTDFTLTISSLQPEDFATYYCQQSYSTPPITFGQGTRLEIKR
notes: The full chains are those of H4H29512 (human IgG4 Fc with S108P); also called H4H29512
For B2, the “Fold induction” value in assay [1] turned out to be 1.29 fold. Further, in assay [2], the “90 nM or 100 nM hPD-1.mmH Bind (RU)” value was 124 RU, the Kd was 3.1 nM, the koff came to 0.000427 s⁻¹ and the association rate constant (kon) worked out at 138000 M⁻¹ s⁻¹. The molecule further gave a t1/2 in assay [2] of 27.1 min. This molecule gave a concentration for a half-maximal effect (EC50) in assay [3] of 5.69 nM.

B3: mAb9048 (antibody, V domains shown)
VH: QVQLVQSGAEVKRPGSSVKVSCKVSGVTFRNFAIIWVRQAPGQGLEWMGGIIPFFSAANYAQSFQGRVTITPDESTSTAFMELASLRSEDTAVYYCAREGERGHTYGFDYWGQGTLVTVSS
VL: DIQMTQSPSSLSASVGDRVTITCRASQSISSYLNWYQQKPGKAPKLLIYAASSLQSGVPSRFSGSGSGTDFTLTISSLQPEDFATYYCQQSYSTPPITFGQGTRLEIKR
notes: The full chains are those of H4H9048 (human IgG4 Fc with S108P); also called H4H9048
As to B3, the “Fold induction” value in assay [1] is 1.24 fold. For the same molecule, in assay [2], the “90 nM or 100 nM hPD-1.mmH Bind (RU)” value is 52.7 RU, the Kd came to 8.95 nM, the off-rate constant (koff) turned out to be 0.00123 s⁻¹ and the kon is 137000 M⁻¹ s⁻¹. In assay [2], this molecule yielded a t1/2 of 9.4 min. The same molecule displayed a concentration for a half-maximal effect (EC50) in assay [3] of 3.48 nM.

Source of the values: US20220402989A1 (Regeneron, published 2022).
